According to patent US20210130436A1:

Assays:
PD-L1 (human) = PD-L1 (human) (UniProt Q9NZQ7); test: cell-based or functional assay
CD28 (human) = CD28 (human) (UniProt P10747); test: cell-based or functional assay

Chain of WT CD80 ECD-Fc (inert) (Fc fusion) (chain): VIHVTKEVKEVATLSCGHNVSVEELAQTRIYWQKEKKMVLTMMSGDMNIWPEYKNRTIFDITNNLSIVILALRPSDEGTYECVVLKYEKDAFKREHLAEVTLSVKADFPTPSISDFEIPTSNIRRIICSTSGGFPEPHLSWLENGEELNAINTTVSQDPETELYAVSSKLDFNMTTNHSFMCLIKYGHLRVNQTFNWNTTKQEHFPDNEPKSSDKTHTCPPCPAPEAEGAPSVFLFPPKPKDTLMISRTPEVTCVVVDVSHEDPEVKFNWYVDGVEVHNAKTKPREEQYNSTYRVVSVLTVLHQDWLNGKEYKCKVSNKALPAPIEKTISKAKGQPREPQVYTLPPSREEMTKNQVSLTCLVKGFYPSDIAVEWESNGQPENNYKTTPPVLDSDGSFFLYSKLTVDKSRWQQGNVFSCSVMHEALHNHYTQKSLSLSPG
Chain of PD-L1 (human) (Q9NZQ7 19-290): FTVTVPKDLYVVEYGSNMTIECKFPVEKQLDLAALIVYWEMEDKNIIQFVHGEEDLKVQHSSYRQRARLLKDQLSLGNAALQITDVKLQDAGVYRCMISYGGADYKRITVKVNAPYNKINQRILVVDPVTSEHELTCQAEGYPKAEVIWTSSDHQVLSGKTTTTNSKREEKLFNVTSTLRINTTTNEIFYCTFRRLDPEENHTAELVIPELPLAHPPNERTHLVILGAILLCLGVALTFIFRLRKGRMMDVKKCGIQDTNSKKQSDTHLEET

Substance | RLU, Jurkat/IL2 reporter; K562/OKT3/PD-L1 aAPC, Combination of FcR and/or PD-L1 Dependent Cross-Linking; 0.6 nM (PD-L1 (human)) [RLU] | RLU, Jurkat/IL2 reporter; K562/OKT3/PD-L1 aAPC, Combination of FcR and/or PD-L1 Dependent Cross-Linking; 1.9 nM (PD-L1 (human)) [RLU] | RLU, Jurkat/IL2 reporter; K562/OKT3/PD-L1 aAPC, Combination of FcR and/or PD-L1 Dependent Cross-Linking; 5.6 nM (PD-L1 (human)) [RLU] | RLU, Jurkat/IL2 reporter; K562/OKT3/PD-L1 aAPC, Combination of FcR and/or PD-L1 Dependent Cross-Linking; 16.7 nM (PD-L1 (human)) [RLU] | RLU, Jurkat/IL2 reporter; K562/OKT3/PD-L1 aAPC, Combination of FcR and/or PD-L1 Dependent Cross-Linking; 50 nM (PD-L1 (human)) [RLU] | IL-2 release, primary T cells; K562/OKT3 (No PD-L1); 1 nM (CD28 (human)) | IL-2 release, primary T cells; K562/OKT3 (No PD-L1); 10 nM (CD28 (human)) | IL-2 release, primary T cells; K562/OKT3 (No PD-L1); 100 nM (CD28 (human)) | RLU, Jurkat/IL2 reporter; K562/OKT3 aAPC, FcR Dependent Cross-Linking (No PD-L1); 0.6 nM (CD28 (human)) [RLU] | RLU, Jurkat/IL2 reporter; K562/OKT3 aAPC, FcR Dependent Cross-Linking (No PD-L1); 1.9 nM (CD28 (human)) [RLU] | RLU, Jurkat/IL2 reporter; K562/OKT3 aAPC, FcR Dependent Cross-Linking (No PD-L1); 5.6 nM (CD28 (human)) [RLU] | RLU, Jurkat/IL2 reporter; K562/OKT3 aAPC, FcR Dependent Cross-Linking (No PD-L1); 16.7 nM (CD28 (human)) [RLU] | RLU, Jurkat/IL2 reporter; K562/OKT3 aAPC, FcR Dependent Cross-Linking (No PD-L1); 50 nM (CD28 (human)) [RLU] | further results
variant CD80 IgV-Fc (effector) E35D/M43L/L70M (Fc fusion) | 1020 | 1250 | 1620 | 2050 | 2780 | 8020 | 7710 | 10500 | 1350 | 1340 | 1400 | 1340 | 1570 | –
WT CD80 ECD-Fc (effector) (from UniProt P33681 35-242) (Fc fusion) | – | – | – | – | – | 11400 | 20200 | 23100 | – | – | – | – | – | IL-2 release, primary T cells; K562/OKT3/PD-L1; 1 nM (PD-L1 (human)): 507; IL-2 release, primary T cells; K562/OKT3/PD-L1; 10 nM (PD-L1 (human)): 3110; IL-2 release, primary T cells; K562/OKT3/PD-L1; 100 nM (PD-L1 (human)): 8390
variant CD80 IgV-Fc (effector) E35D/M47L (Fc fusion) | 2780 | 3850 | 4730 | 5410 | 5040 | 14600 | 23600 | 26800 | 2120 | 3040 | 5620 | 7740 | 8680 | –
WT CD80 IgV-Fc (effector) (Fc fusion) | 662 | 674 | 697 | 673 | 663 | 7170 | 7120 | 6200 | 1410 | 1350 | 1310 | 1210 | 1250 | –
variant CD80 IgV-Fc (effector) A26E/E35D/M47L/L85Q (Fc fusion) | 1230 | 1590 | 2000 | 2500 | 2640 | 6850 | 8320 | – | 1350 | 1380 | 1420 | 1370 | 1330 | –
variant CD80 IgV-Fc (effector) H18Y/A26T/E35D/A71D/L85Q (Fc fusion) | 1160 | 1820 | 3120 | 4330 | 5220 | – | 20500 | 20600 | 2080 | 2810 | 4550 | 6960 | 8750 | –
WT CD80 ECD-Fc (inert) (Fc fusion) | 692 | 705 | 847 | 875 | 1520 | 8050 | 7020 | 6480 | 1340 | 1270 | 1480 | 1730 | 2200 | IL-2-luciferase RLU, Jurkat + CHO/OKT3/PD-L1 aAPC, 0.6 nM (CD28 (human)): 518 RLU; IL-2-luciferase RLU, Jurkat + CHO/OKT3/PD-L1 aAPC, 1.9 nM (CD28 (human)): 474 RLU; IL-2-luciferase RLU, Jurkat + CHO/OKT3/PD-L1 aAPC, 5.6 nM (CD28 (human)): 505 RLU; IL-2-luciferase RLU, Jurkat + CHO/OKT3/PD-L1 aAPC, 16.7 nM (CD28 (human)): 462 RLU; IL-2-luciferase RLU, Jurkat + CHO/OKT3 aAPC (no PD-L1), 5.6 nM (CD28 (human)): 436 RLU; IL-2-luciferase RLU, Jurkat + CHO/OKT3 aAPC (no PD-L1), 16.7 nM (CD28 (human)): 412 RLU; IL-2-luciferase RLU, Jurkat + CHO/OKT3 aAPC (no PD-L1), 50 nM (CD28 (human)): 420 RLU
